Experimental data taken from patent US20190106501A1 (FRED HUTCHINSON CANCER RESEARCH CENTER, published 2019).

Target: T1, CD20 (human, UniProt P11836 1-297)
T1 sequence (looked up): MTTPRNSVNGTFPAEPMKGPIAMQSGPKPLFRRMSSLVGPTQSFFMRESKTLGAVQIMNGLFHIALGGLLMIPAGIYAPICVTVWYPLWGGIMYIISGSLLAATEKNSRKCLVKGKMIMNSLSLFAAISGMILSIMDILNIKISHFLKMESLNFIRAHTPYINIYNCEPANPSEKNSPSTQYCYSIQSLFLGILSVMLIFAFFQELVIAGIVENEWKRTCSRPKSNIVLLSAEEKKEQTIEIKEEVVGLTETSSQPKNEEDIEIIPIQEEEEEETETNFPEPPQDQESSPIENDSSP
Test: cell-based or functional assay

B1: rituximab (antibody, V domains shown)
VH: QVQLQQPGAELVKPGASVKMSCKASGYTFTSYNMHWVKQTPGRGLEWIGAIYPGNGDTSYNQKFKGKATLTADKSSSTAYMQLSSLTSEDSAVYYCARSTYYGGDWYFNVWGAGTTVTVSA
VL: QIVLSQSPAILSASPGEKVTMTCRASSSVSYIHWFQQKPGSSPKPWIYATSNLASGVPVRFSGSGSGTSYSLTISRVEAEDAATYYCQQWTSNPPTFGGGTKLEIK
cell size (forward scatter) of CAR T cells after stimulation with Raji, Daudi or Rec-1 cells pre-incubated with rituximab, relative to no rituximab: > 85% | cell size (forward scatter) of CAR T cells incubated with FL-18 cells at 200 µg/ml rituximab, relative to control: 73% | proliferation (CFSE dilution) of Leu16-28-BB-z-tEGFR CAR T cells with Raji, Daudi, Rec-1, FL-18 targets, rituximab up to 200 µg/ml, relative to no rituximab: > 96%
